Laboratory results from patent US20180110875A1 (SUZHOU SUNCADIA BIOPHARMACEUTICALS, published 2018).

B1: Anti-c-Met antibody Ab-10-toxin MC-MMAF conjugate (antibody, human IgG2, kappa, V domains shown)
VH: QVQLVESGGGVVQPGRSLRLSCAASGFSLSNYGVHWVRQAPGKGLEWLAVIWSGGSTNYAAAFVSRLTISKDNSKNTVYLQMNSLRAEDTAVYYCARNHDNPYNYAMDYWGQGTTVTVSS
VL: DIVLTQSPDSLAVSLGERATINCRADKSVSTSTYNYLHWYQQKPGQPPKLLIYLASNLASGVPDRFSGSGSGTDFTLTISSLQAEDVAVYYCQHSRDLPPTFGQGTKLEIKR
modifications: MC-MMAF coupled through a propyl mercaptan linker put on the antibody; average y=1.7 per antibody; chain and residues not stated
B2: Anti-c-Met antibody Ab-10-toxin conjugate (Example 24) (antibody, V domains shown)
VH: QVQLVESGGGVVQPGRSLRLSCAASGFSLSNYGVHWVRQAPGKGLEWLAVIWSGGSTNYAAAFVSRLTISKDNSKNTVYLQMNSLRAEDTAVYYCARNHDNPYNYAMDYWGQGTTVTVSS
VL: DIVLTQSPDSLAVSLGERATINCRADKSVSTSTYNYLHWYQQKPGQPPKLLIYLASNLASGVPDRFSGSGSGTDFTLTISSLQAEDVAVYYCQHSRDLPPTFGQGTKLEIKR
modifications: toxin intermediate 12h (maleimidocaproyl derivative of toxin 12g) coupled through a propyl mercaptan linker put on the antibody; average y=1.6 per antibody; chain and residues not stated
B3: Ab-9 humanized antibody (antibody, human IgG2, kappa)
heavy: QVTLKESGPVLVKPTETLTLTCTVSGFSLPNYGVHWVRQPPGKALEWLAVIWSGGSTNYAAAFVSRLRISKDTSKSQVVFTMNNMDPVDTATYYCARNHDNPYNYAMDYWGQGTTVTVSSASTKGPSVFPLAPCSRSTSESTAALGCLVKDYFPEPVTVSWNSGALTSGVHTFPAVLQSSGLYSLSSVVTVPSSNFGTQTYTCNVDHKPSNTKVDKTVERKCCVECPPCPAPPVAGPSVFLFPPKPKDTLMISRTPEVTCVVVDVSHEDPEVQFNWYVDGVEVHNAKTKPREEQFNSTFRVVSVLTVVHQDWLNGKEYKCKVSNKGLPAPIEKTISKTKGQPREPQVYTLPPSREEMTKNQVSLTCLVKGFYPSDIAVEWESNGQPENNYKTTPPMLDSDGSFFLYSKLTVDKSRWQQGNVFSCSVMHEALHNHYTQKSLSLSPGK
light: DIVLTQSPASLAVSPGQRATITCRANKSVSTSTYNYLHWYQQKPGQPPKLLIYLASNLASGVPARFSGSGSGTDFTLTINPVEANDTANYYCQHSRDLPPTFGQGTKLEIKRTVAAPSVFIFPPSDEQLKSGTASVVCLLNNFYPREAKVQWKVDNALQSGNSQESVTEQDSKDSTYSLSSTLTLSKADYEKHKVYACEVTHQGLSSPVTKSFNRGEC
notes: human constant regions, kappa light chain
B4: Ab-10 humanized antibody (antibody, human IgG2, kappa)
heavy: QVQLVESGGGVVQPGRSLRLSCAASGFSLSNYGVHWVRQAPGKGLEWLAVIWSGGSTNYAAAFVSRLTISKDNSKNTVYLQMNSLRAEDTAVYYCARNHDNPYNYAMDYWGQGTTVTVSSASTKGPSVFPLAPCSRSTSESTAALGCLVKDYFPEPVTVSWNSGALTSGVHTFPAVLQSSGLYSLSSVVTVPSSNFGTQTYTCNVDHKPSNTKVDKTVERKCCVECPPCPAPPVAGPSVFLFPPKPKDTLMISRTPEVTCVVVDVSHEDPEVQFNWYVDGVEVHNAKTKPREEQFNSTFRVVSVLTVVHQDWLNGKEYKCKVSNKGLPAPIEKTISKTKGQPREPQVYTLPPSREEMTKNQVSLTCLVKGFYPSDIAVEWESNGQPENNYKTTPPMLDSDGSFFLYSKLTVDKSRWQQGNVFSCSVMHEALHNHYTQKSLSLSPGK
light: DIVLTQSPDSLAVSLGERATINCRADKSVSTSTYNYLHWYQQKPGQPPKLLIYLASNLASGVPDRFSGSGSGTDFTLTISSLQAEDVAVYYCQHSRDLPPTFGQGTKLEIKRTVAAPSVFIFPPSDEQLKSGTASVVCLLNNFYPREAKVQWKVDNALQSGNSQESVTEQDSKDSTYSLSSTLTLSKADYEKHKVYACEVTHQGLSSPVTKSFNRGEC
notes: as for B3
B5: Ab-11 humanized antibody (antibody, human IgG2, kappa, V domains shown)
VH: QVQLVESGGGVVQPGRSLRLSCAASGFTLPNYGVHWVRQAPGKGLEWLAVIWSGGSTNYAAAFVSRLTISKDNSKNTVYLQMNSLRAEDTAVYYCARNHDNPYNYAMDYWGQGTTVTVSS
VL: DIVLTQSPDSLAVSLGERATINCRANKSVSTSTYNYLHWYQQKPGQPPKLLIYLASNLASGVPDRFSGSGSGTDFTLTISSLQAEDVAVYYCQHSRDLPPTFGQGTKLEIKR
notes: as for B3

Columns and labels:
[1] = molecular target: T1, human c-Met expressed on cells (human, UniProt P08581 25-1390); assay: cell-based or functional assay
T1 sequence (P08581 25-1390): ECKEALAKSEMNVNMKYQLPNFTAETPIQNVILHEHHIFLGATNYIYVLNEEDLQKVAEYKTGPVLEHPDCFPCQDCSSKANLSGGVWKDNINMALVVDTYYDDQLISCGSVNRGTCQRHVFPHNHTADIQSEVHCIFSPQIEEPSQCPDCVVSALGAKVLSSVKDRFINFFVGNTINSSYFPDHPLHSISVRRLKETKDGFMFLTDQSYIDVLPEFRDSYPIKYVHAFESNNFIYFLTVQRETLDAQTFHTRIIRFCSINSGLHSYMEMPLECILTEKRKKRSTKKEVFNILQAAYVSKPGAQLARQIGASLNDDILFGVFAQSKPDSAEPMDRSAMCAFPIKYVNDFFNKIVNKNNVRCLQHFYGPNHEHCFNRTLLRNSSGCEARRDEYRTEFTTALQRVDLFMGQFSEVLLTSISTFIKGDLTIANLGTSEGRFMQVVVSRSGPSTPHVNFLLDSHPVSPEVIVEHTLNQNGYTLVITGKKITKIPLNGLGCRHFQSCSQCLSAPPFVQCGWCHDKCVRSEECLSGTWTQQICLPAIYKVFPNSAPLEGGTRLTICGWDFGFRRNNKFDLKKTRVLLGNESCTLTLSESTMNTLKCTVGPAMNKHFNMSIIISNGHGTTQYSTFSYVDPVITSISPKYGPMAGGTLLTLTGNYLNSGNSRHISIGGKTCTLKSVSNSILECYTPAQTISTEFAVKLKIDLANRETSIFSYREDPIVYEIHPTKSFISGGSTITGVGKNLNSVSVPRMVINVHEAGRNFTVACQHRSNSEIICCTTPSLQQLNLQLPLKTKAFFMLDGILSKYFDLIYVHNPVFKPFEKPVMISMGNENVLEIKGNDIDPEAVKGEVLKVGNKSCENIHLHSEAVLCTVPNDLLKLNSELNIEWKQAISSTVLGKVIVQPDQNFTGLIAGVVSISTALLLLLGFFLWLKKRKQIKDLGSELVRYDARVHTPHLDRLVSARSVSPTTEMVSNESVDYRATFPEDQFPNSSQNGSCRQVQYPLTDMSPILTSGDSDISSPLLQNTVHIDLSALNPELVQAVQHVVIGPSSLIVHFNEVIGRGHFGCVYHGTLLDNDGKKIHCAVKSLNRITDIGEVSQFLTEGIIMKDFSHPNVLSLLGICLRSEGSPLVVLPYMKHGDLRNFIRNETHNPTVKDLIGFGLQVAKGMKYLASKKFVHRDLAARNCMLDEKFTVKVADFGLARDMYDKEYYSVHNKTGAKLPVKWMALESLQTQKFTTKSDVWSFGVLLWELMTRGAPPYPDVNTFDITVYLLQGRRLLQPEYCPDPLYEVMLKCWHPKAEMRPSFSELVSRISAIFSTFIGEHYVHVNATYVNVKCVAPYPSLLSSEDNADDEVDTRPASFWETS

[2] = molecular target: T1, human c-Met expressed on cells; assay: cell-based or functional assay; remark: listed apart in the source
[3] = molecular target: T2, Human c-Met extracellular region (ECD) and murine Fc region fusion protein (Human c-Met ECD-mFc) (human, UniProt P08581 25-932); assay: blocking ELISA of HGF/c-Met binding: c-Met ECD-mFc coated, antibody titrated, human HGF 20 ng/ml
T2 construct: extracellular domain; Expressed in 293F cells; not shown: murine Fc region
T2 sequence (P08581 25-932): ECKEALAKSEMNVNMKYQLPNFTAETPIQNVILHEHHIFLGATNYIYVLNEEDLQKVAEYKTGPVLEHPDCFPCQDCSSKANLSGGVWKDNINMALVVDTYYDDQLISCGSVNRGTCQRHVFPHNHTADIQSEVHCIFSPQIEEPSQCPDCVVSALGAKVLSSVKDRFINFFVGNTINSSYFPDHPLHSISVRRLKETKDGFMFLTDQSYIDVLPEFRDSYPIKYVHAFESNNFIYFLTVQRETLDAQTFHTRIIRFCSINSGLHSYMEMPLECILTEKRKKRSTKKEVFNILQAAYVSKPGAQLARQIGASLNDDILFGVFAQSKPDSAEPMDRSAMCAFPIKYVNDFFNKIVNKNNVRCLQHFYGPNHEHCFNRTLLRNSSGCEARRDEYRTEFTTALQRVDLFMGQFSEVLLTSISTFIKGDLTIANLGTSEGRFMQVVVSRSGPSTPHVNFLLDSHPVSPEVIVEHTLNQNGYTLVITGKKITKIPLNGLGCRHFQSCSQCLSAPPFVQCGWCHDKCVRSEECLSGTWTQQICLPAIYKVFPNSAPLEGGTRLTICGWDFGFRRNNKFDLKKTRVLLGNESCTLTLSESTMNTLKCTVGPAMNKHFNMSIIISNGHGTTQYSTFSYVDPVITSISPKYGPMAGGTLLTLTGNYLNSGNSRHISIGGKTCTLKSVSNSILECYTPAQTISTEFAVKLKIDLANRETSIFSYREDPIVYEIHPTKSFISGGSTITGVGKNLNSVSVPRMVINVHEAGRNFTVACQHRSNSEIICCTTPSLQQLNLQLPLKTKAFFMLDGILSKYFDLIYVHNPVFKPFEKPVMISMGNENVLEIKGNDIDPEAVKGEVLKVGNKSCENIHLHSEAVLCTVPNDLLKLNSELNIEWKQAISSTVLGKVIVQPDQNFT
Description: c-Met ECD-mFc (Example 1) was diluted in PBS (Hyclone, Cat #SH30256.01B) with a final concentration of 2 μg/ml, and then a 96-well ELISA plate (Costar, cat#2592) was coated with c-Met ECD-mFc at room temperature overnight. The plate was washed with PBST (PBS+0.05% tween 20, Simga, Cat#P1379) 3 times on a plate washer (Suppler: BioTex; Model: ELX405; S/N: 251504). 300 μl blocking solution PBS+1% BSA (Roche, Cat #738328) was added to the 96-well plate, and the plate was incubated for 60 minutes at 37° C. After the plate was washed with PBST 3 times, 50 μl of antibody diluted by blocking solution was added to the 96-well plate, and the plate was incubated for 90 minutes at 37° C. […] After the plate was washed with PBST 3 times, 100 μl of horseradish peroxidase (ebioscience, #18-4100-51) diluted with blocking solution was added to the 96-well plate and incubated for 30 minutes. After the plate was washed with PBST 3 times, 100 μl substrate (ebioscience, cat#00-4201-56) was added to the plate and incubated for 10 minutes at room temperature. 100 μl stop solution (2N H₂SO₄) was added, and data was read by a […] microplate reader (Supplier: Moleculer Devices; Model: MNR0643; Equip ID: TMRP001). Data analysis was performed by SoftMax Pro v5.

[4] = molecular target: T1, human c-Met expressed on cells; assay: cell-based or functional assay; remark: listed apart in the source
[5] = molecular target: T3, Human c-Met ECD His Tag (Human c-Met ECD-his) recombinant protein (human, UniProt P08581 25-932); assay: ELISA, human c-Met-His coated at 2 ug/ml
T3 construct: extracellular domain; Expressed in 293F cells; also called human c-Met-His; not shown: C-terminal His tag
T3 sequence (P08581 25-932): as above

[6] = molecular target: T4, Human c-Met extracellular Sema region and Flag-His tag (Human c-Met Sema-Flis) (human, UniProt P08581 25-515, limits assumed); assay: SPR (Biacore), antibody captured by anti-human IgG, Sema-His 200-0.78 nM as analyte, 1:1 Langmuir
T4 construct: domain: extracellular Sema region; Expressed in 293F cells; also called Sema-His; c-Met antigen Sema-His; not shown: C-terminal Flag-His tag
T4 sequence (P08581 25-515 limits assumed): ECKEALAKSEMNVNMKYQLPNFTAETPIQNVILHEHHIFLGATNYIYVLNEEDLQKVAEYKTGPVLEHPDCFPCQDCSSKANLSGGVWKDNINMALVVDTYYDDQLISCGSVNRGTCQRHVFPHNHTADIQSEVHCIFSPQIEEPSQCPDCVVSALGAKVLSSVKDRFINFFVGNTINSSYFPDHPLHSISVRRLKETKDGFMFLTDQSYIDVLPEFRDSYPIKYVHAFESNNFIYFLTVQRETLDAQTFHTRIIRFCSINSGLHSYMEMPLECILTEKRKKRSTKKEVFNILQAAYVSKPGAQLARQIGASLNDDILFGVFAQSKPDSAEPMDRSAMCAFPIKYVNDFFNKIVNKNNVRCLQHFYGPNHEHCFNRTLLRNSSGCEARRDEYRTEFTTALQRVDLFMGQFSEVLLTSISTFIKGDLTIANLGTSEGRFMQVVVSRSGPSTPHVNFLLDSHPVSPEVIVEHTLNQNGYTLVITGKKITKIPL
Description: Anti-mouse IgG (GE Life Sciences catalog # BR-1008-38) or anti-human IgG (GE Life Sciences catalog # BR-1008-39) antibodies were respectively diluted to 30 μg/ml and 50 μg/ml by sodium acetate solution, pH 5.0 (GE Healthcare, Cat#BR-1003-51). An amino coupling kit (GE Life Sciences, Cat#BR100050) was immobilized onto the test channels and control channels on a CMS chip (GE Life Sciences catalog # BR-1000-12), and the coupling level was set at 15000RU. Running buffer PBS (Hyclone, Cat#SH30256.01B)+0.05% P20 (GE Life Sciences, Cat#BR-1000-54) was used to dilute the c-Met antibody to 1.5 μg/ml. Antigen Sema-His was diluted to 200 nM with running buffer, and then diluted at a 1:2 dilution with the same buffer until it reached 0.78 nM. The diluted antibody passed through the test channel for 1 minute at a speed of 30 μl/min, and the antigen passed through the test channels and control channels for 3 minutes at the same speed. After 10 minutes of dissociation, the flow speed was adjusted to 10 μl/min, and regeneration buffer was passed through test channels and control channels for 3 minutes. Data was fitted by BiaEvaluation 4.1 after double deduction, and the fitting model was a 1:1 Langmuir model.

Binder	Inhibition of proliferation of BxPC3 cells (CCK), IC50 [1] [nM]	Inhibition of proliferation of Caki-1 cells (CCK), IC50 [1] [nM]	Inhibition of proliferation of MKN45 cells (CCK), IC50 [1] [nM]	Inhibition of proliferation of NCI-H596 cells (CCK), IC50 [1] [nM]	Inhibition of proliferation of NCI-H1993 cells (CCK), IC50 [1] [nM]	Inhibition of proliferation of PC9 cells (CCK), IC50 [1] [nM]	Inhibition of proliferation of SNU5 cells (CCK), IC50 [1] [nM]	IC50 (nM) in MKN45 cell (cytotoxicity, ATP assay) [2] [nM]	IC50 [3] [nM]	Activity of inhibition of MKN45 cell proliferation, IC50 [4] [nM]	EC50 [5] [nM]	Kd [6] [nM]
B1	6.9	6.5	0.17	104	2.8	5.6	0.24	0.51				
B2								0.59				
B3									1.42	0.52	0.13	4
B4	> 1000	> 1000	0.15	13.7		> 1000	0.1		1.5	0.55	0.39	8
B5											0.2	
